# Laboratory results published in US20030061635A1, “Pollen-specific novel calmodulin-binding protein, NPG1 (No Pollen Germination1), promoter, coding sequences and methods for using the same” (priority 2001, published 2003).
# How the values were obtained:
# [1] = system: CaM isoforms 2, 4, and 6 from Arabidopsis; assay: Slot blot: synthetic peptides probed with 35S-labeled AtCaM isoforms; type: binding, Arabidopsis thaliana
# Experimental: Soluble and insoluble proteins from the induced and un-induced cultures were separated on 12% SDS-polyacrylamide gels and blotted as described above. To detect the binding of the expressed proteins to ^35S-labeled AtCaM, duplicate blots were blocked for 15 min in TBS (50 mM Tris-HCl, pH 7.5, 150 mM NaCl) containing 5 mM of either CaCl2 or EGTA and 1% nonfat dry milk. The blots were then incubated for 12 h in a mixture of ^35S-labeled AtCaM isoforms at […] in the same buffers as above. The filters were then washed with the corresponding buffer and dried before exposing to X-ray film. Binding to biotinylated CaM was detected by blocking the blots in 3% gelatin in TBS/Ca/Mg or TBS/EGTA/Mg (50 mM Tris-HCl, pH 7.5, 50 mM MgCl2, 150 mM NaCl, and 5 mM of either CaCl2 or EGTA) at 30° C. […] The blots were then incubated in Vectastain ABC.HRP in TBS/Ca/Mg or TBS/EGTA/Mg for 30 min, washed 3 times, 10 min each, with the above buffer and the CaM-binding proteins were detected colorimetrically in a substrate solution (0.8 mg/ml diaminobenzidine, 0.4 mg/ml NiCl2, and 0.009% H2O2 in 100 mM Tris-HCl, pH 7.5). […]
# The interaction between synthetic peptides and AtCaM isoforms was analyzed by applying synthetic peptides to a nitrocellulose membrane in a slot blot apparatus, and incubating the membrane individually with ^35S-labeled AtCaM isoforms using the method described above.
# 35S-labeled AtCaM = assay: Blot overlay of bacterially expressed maize NPG1 fusion proteins with 35S-CaM; type: binding, Arabidopsis thaliana; details: in the presence of Ca2+
# Experimental: The 1.2-kb cDNA insert (named P3) containing the coding region for 242 amino acids in the carboxyl-terminal region was cloned in-frame into a pET28b expression vector. For mapping the CaM-binding domain, several truncated constructs were prepared in a pET vector. The P3 cDNA in pET28 was digested with either NcoI or BamHI to release a 168- or 717-bp fragment corresponding to the 5′ end of the cDNA. The NcoI and BamHI fragments were cloned into pET28b vector digested with the respective enzymes to generate P3/NcoI and P3/BamHI clones. The P3 clones lacking either NcoI or BamHI fragments were religated to generate PΔNcoI and PΔBamHI expression clones. […]
# Soluble and insoluble proteins from the induced and un-induced cultures were separated on 12% SDS-polyacrylamide gels and blotted as described above. […] Binding to biotinylated CaM was detected by blocking the blots in 3% gelatin in TBS/Ca/Mg or TBS/EGTA/Mg (50 mM Tris-HCl, pH 7.5, 50 mM MgCl2, 150 mM NaCl, and 5 mM of either CaCl2 or EGTA) at 30° C. […] The blots were then incubated in Vectastain ABC.HRP in TBS/Ca/Mg or TBS/EGTA/Mg for 30 min, washed 3 times, 10 min each, with the above buffer and the CaM-binding proteins were detected colorimetrically in a substrate solution (0.8 mg/ml diaminobenzidine, 0.4 mg/ml NiCl2, and 0.009% H2O2 in 100 mM Tris-HCl, pH 7.5).
# bovine CaM [2] = target: T1, bovine CaM (Bos taurus, UniProt P62157); assay: Binding of synthetic peptide to bovine CaM; details: 'at concentrations as low as'
# T1 construct: purchased Calbiochem-Novabiochem (San Diego, Calif.)
# bovine CaM [3] = target: T1, bovine CaM; assay: Calmodulin electrophoretic mobility shift assay in 4 M urea gels; type: binding
# Experimental: (§1) The interaction of CaM with synthetic peptide was also analyzed using electrophoretic mobility shift of CaM in the presence of a synthetic peptide. Each of the AtCaM isoforms and bovine CaM (166 pmol) were incubated with increasing concentrations of maize NPG1-synthetic peptide (166, 332, and 664 pmol) in the presence of 4 M urea, in a buffer containing 100 mM Tris-HCl, pH 7.5, and 1 mM CaCl2 or 5 mM EGTA at room temperature for 1 h in a total volume of […]. Then, […] of sample buffer (0.375 M Tris-HCl, pH 6.8, 30% glycerol, and 0.023% bromphenol blue) was added to the samples and the mixture was electrophoresed in 12% polyacrylamide gels containing 4 M urea or 7.5% glycerol, 0.375 M Tris-HCl, pH 8.8, and either 1 mM CaCl2 or 5 mM EGTA. The gels were run at a constant voltage of 25 V per gel in an electrode buffer (25 mM Tris-HCl, pH 8.3, 192 mM glycine, and either 1 mM CaCl2 or 5 mM EGTA). The gels were stained with 0.25% Coomassie Blue R-250 in 7.5% acetic acid and 50% methanol for 1 h and then destained with 30% methanol and 7% acetic acid.
# [4] = system: AtCaM isoforms (CaM2, CaM4, CaM6); assay: as above; type: binding, Arabidopsis thaliana
# Experimental: as §1
# CaM2 = target: T2, CaM2 (Arabidopsis thaliana, UniProt P0DH97); assay: Tryptophan fluorescence spectroscopy of peptide with CaM; type: binding; details: equimolar peptide and CaM2, excitation 290 nm; free peptide about 350 nm
# T2 construct: made in house; host or cells: E. coli BL21(DE3)
# Experimental: (§2) The tryptophan fluorescence spectra of free and CaM-bound synthetic peptide were recorded with a Hitachi-F-3010/4010 spectrofluorimeter as described in Reddy et al. (1996) supra. NPG1 peptide and AtCaMs (166 pmol each) were mixed in a […] reaction volume. The tryptophan residue in free and CaM-bound synthetic NPG1 peptide was excited at 290 nm and the emission wavelength values were recorded from 300 to 400 nm with a bandwidth of 5 nm in a 5-mm quartz cell at 25° C. Samples were incubated for 1 h at 25° C. prior to spectroscopic measurements. Corrections were made for the protein and solvent blanks.
# CaM4 = target: T3, CaM4 (Arabidopsis thaliana, UniProt P0DH96); assay: as above; type: binding
# T3 construct: made in house; host or cells: E. coli BL21(DE3)
# Experimental: as §2
# CaM6 = target: T4, CaM6 (Arabidopsis thaliana, UniProt Q03509); assay: as above; type: binding; details: equimolar peptide and CaM6, excitation 290 nm; free peptide about 350 nm
# T4 construct: made in house; host or cells: E. coli BL21(DE3)
# Experimental: as §2
# bovine CaM [5] = target: T1, bovine CaM; assay: as above; type: binding; details: equimolar peptide and bovine CaM, excitation 290 nm; free peptide about 350 nm
# Experimental: as §2
# CaM = CaM binding of truncated Arabidopsis NPG1
# Description: To map the CaM-binding domain, a truncated version (aa 448-496 of SEQ ID NO:10) of Arabidopsis NPG1 which contains a putative calmodulin-binding domain was expressed in E. coli and tested for its ability to bind CaM. […] The CBD was further mapped to an eighteen amino acid stretch (aa 464-481) by using synthetic peptides in a gel-shift assay.
# [6] = molar ratio 1:1 (peptide:CaM), CaCl2, 4 M urea
# [7] = molar ratio 2:1 and 4:1 (peptide:CaM), CaCl2, 4 M urea
substance,measurement,setting,value
AKLDQGSLLRVKA-KLKVAQSSPM (AKLDQGSLLRVKAKLKVAQSSPM) [MP-2],binding to the labeled CaM isoforms,"[1]; 35S-labeled AtCaM isoforms, slot blot",Neither MP2 nor BSA showed any binding
P3/NcoI: truncated P3 fusion protein (16 kDa) from the 168-bp NcoI fragment at the 5′ end of the cDNA (GGSVSKGWRLLALILSAQQRFSEAEVATDAALDETAKLDQGSLLRVKAKLKVAQSSP; left off: small tags and cut ends),binding to 35S-CaM,35S-labeled AtCaM,produced CaM-binding peptide
VSKGWRLLALILSAQQRF [MP-1],lowest amount of synthetic peptide that bound CaM,"[1]; CaM isoforms 2, 4, and 6, 'at concentrations as low as'",0.5 µg
same,lowest amount of synthetic peptide that bound CaM,bovine CaM [2],0.5 µg
same,change in CaM mobility,bovine CaM [3]; in the presence of EGTA,No change in CaM mobility
same,CaM showing a mobility shift,bovine CaM [3]; [6],about 50%
same,CaM migrating as peptide complex,bovine CaM [3]; [7],the entire CaM migrated as a complex
same,change in CaM mobility,[4]; in the presence of EGTA,No change in CaM mobility
same,CaM showing a mobility shift,[4]; [6],about 50%
same,CaM migrating as peptide complex,[4]; [7],the entire CaM migrated as a complex
same,wavelength of peak emission,CaM2,about 315 nm
same,wavelength of peak emission,"CaM4; equimolar peptide and CaM4, excitation 290 nm, free peptide about 350 nm",about 315 nm
same,fluorescence intensity,"CaM4; in the presence of CaM4, free peptide about 0.1",about 4.5
same,wavelength of peak emission,CaM6,about 315 nm
same,wavelength of peak emission,bovine CaM [5],about 315 nm
"truncated version (aa 448-496 of SEQ ID NO:10): truncated Arabidopsis NPG1 containing a putative calmodulin-binding domain, expressed in E. coli (AASRYAKEFIDATGGSVLKGWRFLALVLSAQQRFSEAEVVTDAALDETA; listed as Arabidopsis thaliana)",ability to bind CaM,CaM,bound CaM in a manner similar to the full-length protein
